Laboratory results: patent US10941182 (Amgen, dated 2021)
Starred links: 1 amine or outer side, 2 acyl side, 3 side chain; linkers in the order of their positions; H or OH if unused. Non-standard residues stand in square brackets, D forms with d. Primed or numbered codes have the meaning given here. *: point of attachment. AC4Abu = α-carboxy-4-aminobutyric acid, O=C(C(CCN[*:1])C(=O)[*:3])[*:2]; dBip = N[C@H](Cc1ccc(-c2ccccc2)cc1)C(=O)O; Oic = O=C(O)[C@@H]1C[C@@H]2CCCC[C@@H]2N1; Phe(4-Cl) = N[C@@H](Cc1ccc(Cl)cc1)C(=O)O; Phe(4-I) = N[C@@H](Cc1ccc(I)cc1)C(=O)O; γGlu = O=C(O)[C@H](CCC(=O)[*:2])N[*:1]; 2Nal = N[C@@H](Cc1ccc2ccccc2c1)C(=O)O; NMehArg = CN[C@@H](CCCCNC(=N)N)C(=O)O; HOOC(CH2)8CO = O=C(O)CCCCCCCCC(=O)*; NMeR = CN[C@@H](CCCNC(=N)N)C(=O)O; Palmitoyl = CCCCCCCCCCCCCCCC(=O)*; Tridecanoyl = CCCCCCCCCCCCC(=O)*; hArg = N=C(N)NCCCC[C@H](N)C(=O)O; Cha = N[C@@H](CC1CCCCC1)C(=O)O; NMeL = CN[C@@H](CC(C)C)C(=O)O; αMeL = CC(C)C[C@](C)(N)C(=O)O; αMeP = C[C@@]1(C(=O)O)CCCN1; AC4Abu″ = not defined here; β3hP = O=C(O)C[C@@H]1CCCN1; Nle = CCCC[C@H](N)C(=O)O; Pip′ = not defined here; Dap = NC[C@H](N)C(=O)O; AEEA = NCCOCCOCC(=O)O; Aib = CC(C)(N)C(=O)O

T1: rat APJ receptor (rat, UniProt Q9JHG3 1-377)
T1 sequence (looked up): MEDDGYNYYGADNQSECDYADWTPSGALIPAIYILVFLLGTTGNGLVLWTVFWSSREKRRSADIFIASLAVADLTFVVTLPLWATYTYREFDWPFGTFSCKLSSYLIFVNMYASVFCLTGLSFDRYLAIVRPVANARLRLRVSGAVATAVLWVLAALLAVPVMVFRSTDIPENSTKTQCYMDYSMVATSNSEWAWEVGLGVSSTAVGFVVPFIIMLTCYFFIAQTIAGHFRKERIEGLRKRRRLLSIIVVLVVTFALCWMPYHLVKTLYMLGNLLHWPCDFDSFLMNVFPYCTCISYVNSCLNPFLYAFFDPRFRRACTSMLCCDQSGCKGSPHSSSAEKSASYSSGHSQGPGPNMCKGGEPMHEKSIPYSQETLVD

T2: rat APJ receptor (rat, UniProt Q9JHG3 1-377)
T2 sequence (looked up): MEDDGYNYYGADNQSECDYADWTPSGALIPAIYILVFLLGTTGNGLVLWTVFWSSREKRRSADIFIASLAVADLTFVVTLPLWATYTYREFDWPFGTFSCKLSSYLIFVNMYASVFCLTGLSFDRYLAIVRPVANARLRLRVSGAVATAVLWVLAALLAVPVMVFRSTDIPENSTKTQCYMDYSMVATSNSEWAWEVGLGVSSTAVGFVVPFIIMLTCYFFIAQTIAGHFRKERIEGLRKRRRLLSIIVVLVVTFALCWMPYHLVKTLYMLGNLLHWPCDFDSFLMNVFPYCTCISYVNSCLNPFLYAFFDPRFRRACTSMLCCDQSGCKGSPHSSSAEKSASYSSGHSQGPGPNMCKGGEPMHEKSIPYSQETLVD


The binders below were run against T1, rat APJ receptor (assay: cell-based or functional assay).

| Binder | EC50 Rat APJ Receptor (GTPγS assay) |
| --- | --- |
| Tridecanoyl-[AC4Abu″][AEEA][AEEA]QRP[NMehArg]LSHKGP[Nle]P[2Nal]-OH (reading uncertain; also: printed as {TDA}[AC4Abu][Aeea][Aeea]QRP[NMehArg]LSHKGP[Nle]P[2Nal]{COOH}) [Apelin polypeptide SEQ ID NO: 471] | 0.0974 nM |
| XXXQRPRLSHKGPXPF ({TDA}[AC4Abu][Aeea][Aeea]QRP[NMeArg]LSHKGP[Nle][BhPro][4-Cl-F]{COOH}) [Apelin polypeptide SEQ ID NO: 426] | 0.382 nM |
| XXXQRPRLSHKGPXPF ({TDA}[AC4Abu][Aeea][Aeea]QRP[NMeArg]LS[rHis]KGP[Nle]P[4-Cl-F]{COOH}) [Apelin polypeptide SEQ ID NO: 469] | 1.33 nM |
| Tridecanoyl-[AC4Abu″][AEEA][AEEA][dQ][hArg][Aib][dR][Cha]SHKG[Oic][Nle]P[Phe(4-Cl)]-OH (reading uncertain; also: printed as {TDA}[AC4Abu][Aeea][Aeea]q[hArg][Aib]r[Cha]SHKG[Oic][Nle]P[4-Cl-F]{COOH}) [Apelin polypeptide SEQ ID NO: 454] | 5.35 nM |
| XXXQRPRLSHKGPXPF ({TDA}[AC4Abu][Aeea][Aeea]QrP[hArg][aMeLeu]SHKGP[Nle]P[4-Cl-F]{COOH}) [Apelin polypeptide SEQ ID NO: 485] | 0.41 nM |
| Tridecanoyl-[AC4Abu][AEEA][AEEA]QRP[NMeR][Cha]SAKG[Oic][Nle]P[Phe(4-Cl)]-OH (SMILES CCCCCCCCCCCCC(=O)NCCC(C(=O)O)C(=O)NCCOCCOCC(=O)NCCOCCOCC(=O)N[C@@H](CCC(N)=O)C(=O)N[C@@H](CCCNC(=N)N)C(=O)N1CCC[C@H]1C(=O)N(C)[C@@H](CCCNC(=N)N)C(=O)N[C@@H](CC1CCCCC1)C(=O)N[C@@H](CO)C(=O)N[C@@H](C)C(=O)N[C@@H](CCCCN)C(=O)NCC(=O)N1[C@H](C(=O)N[C@@H](CCCC)C(=O)N2CCC[C@H]2C(=O)N[C@@H](Cc2ccc(Cl)cc2)C(=O)O)C[C@@H]2CCCC[C@@H]21) [Apelin polypeptide SEQ ID NO: 419] | 0.379 nM |
| XXXQRPRLSHKGPXPF ({TDA}[AC4Abu][Aeea][Aeea]QRP[NMeArg]L[aMeS]HKGP[Nle]P[4-Cl-F]{COOH}) [Apelin polypeptide SEQ ID NO: 468] | 0.165 nM |
| XXXQRPRLSHKGPXPF ({TDA}[AC4Abu][Aeea][Aeea]QRP[NMeArg][NMeLeu]SHKGP[Nle]P[4-Cl-F]{COOH}) [Apelin polypeptide SEQ ID NO: 459] | 0.23 nM |
| Tridecanoyl-[AC4Abu″][AEEA][AEEA][dR][dQ][hArg]P[hArg][Cha]SHKG[Oic][Nle]P[Phe(4-Cl)]-OH (reading uncertain; also: printed as {TDA}[AC4Abu][Aeea][Aeea]rq[hArg]P[hArg][Cha]SHKG[Oic][Nle]P[4-Cl-F]{COOH}) [Apelin polypeptide SEQ ID NO: 481] | 0.341 nM |
| XXXQRPRLSHKGPXPF ({TDA}[AC4Abu][Aeea][Aeea]QrP[NMehArg][aMeLeu]SHKGP[Nle]P[4-Cl-F]{COOH}) [Apelin polypeptide SEQ ID NO: 456] | 0.178 nM |
| XXXQRPRLSHKGPXPF ({TDA}[AC4Abu][Aeea][Aeea]QRP[NMeArg][BLeu]SHKGP[Nle]P[4-Cl-F]{COOH}) [Apelin polypeptide SEQ ID NO: 458] | 0.12 nM |
| XXXQRPRLSHKGPXPF ({TDA}[AC4Abu][Aeea][Aeea]QRP[NMeArg][aMeLeu]SHKG[aMePro][Nle]P[4-Cl-F]{COOH}) [Apelin polypeptide SEQ ID NO: 387] | 0.166 nM |
| XXXQRPRLSHKGPXPF ({TDA}[AC4Abu][Aeea][Aeea]QRP[NMeArg][aMeLeu]SHKGP[Nle]P[4-Cl-F]{COOH}) [Apelin polypeptide SEQ ID NO: 457] | 0.0564 nM |
| Tridecanoyl-[AC4Abu″][AEEA][AEEA][dQ]RP[NMeR][αMeL][BhSer]HKG[Oic][Nle][αMeP][Phe(4-Cl)]-OH (reading uncertain) [Apelin polypeptide SEQ ID NO: 518] | 0.444 nM |
| Tridecanoyl-[AC4Abu″][AEEA][AEEA]QRP[NMeR][Cha]SHKG[Pip′][Nle]P[Phe(4-Cl)]-OH (reading uncertain) [Apelin polypeptide SEQ ID NO: 416] | 0.346 nM |
| XXXQRPRLSHKGPXPF ({TDA}[AC4Abu][Aeea][Aeea]Q[hArg]P[hArg]LSHKGP[Nle]P[4-Cl-F]{COOH}) [Apelin polypeptide SEQ ID NO: 357] | 0.24 nM |
| Tridecanoyl-[AC4Abu″][AEEA][AEEA]Q[hArg]P[NMeR][Cha]SHKGP[Nle]P[Phe(4-Cl)]-OH (reading uncertain) [Apelin polypeptide SEQ ID NO: 408] | 0.184 nM |
| Tridecanoyl-[AC4Abu″][AEEA][AEEA]QRP[NMeR][Cha]SHKG[αMeP][Nle]P[Phe(4-Cl)]-OH (reading uncertain) [Apelin polypeptide SEQ ID NO: 418] | 0.253 nM |
| XXXQRPRLSHKGPXPF ({TDA}[AC4Abu][Aeea][Aeea]Q[hArg]P[NMehArg]LSHKGP[Nle]P[4-Cl-F]{COOH}) [Apelin polypeptide SEQ ID NO: 483] | 0.229 nM |
| XXXQXPRLSHKGPXPF ({TDA}[AC4Abu][Aeea][Aeea]Q[Cit]P[NMeArg]LSHKGP[Nle]P[4-Cl-F]{COOH}) [Apelin polypeptide SEQ ID NO: 400] | 0.42 nM |
| XXXQRPRLSHKGPXPF ({TDA}[AC4Abu][Aeea][Aeea]Q[NMehArg]P[NMeArg][aMeLeu]SHKGP[Nle]P[4-Cl-F]{COOH}) [Apelin polypeptide SEQ ID NO: 484] | 0.767 nM |
| XXXQRPRLSHKGPXPF ({TDA}[AC4Abu][Aeea][Aeea]QRP[hArg]LSHKGP[Nle]P[4-Cl-F]{COOH}) [Apelin polypeptide SEQ ID NO: 355] | 0.06 nM |
| XXXQRPRLSHKGPXPF ({TDA}[AC4Abu][Aeea][Aeea]QRP[NMeArg]LSHKGP[Nle]P[4-Cl-F]{COOH}) [Apelin polypeptide SEQ ID NO: 287] | 0.242 nM |

Each binder was assayed against T2, rat APJ receptor (assay: cell-based or functional assay).

| Binder | EC50 Rat APJ Receptor |
| --- | --- |
| XXXQRPRLSHKGPXPF ({DDDA}[AC4Abu][Aeea][Aeea]QRP[NMeArg]LSHKGP[Nle]P[4-Cl-F]{COOH}) [SEQ ID NO: 510] | 0.903 nM |
| XXXQRPRLSHKGPXPF ({Butanoyl}[AC4Abu][Aeea][Aeea]QRP[NMeArg]LSHKGP[Nle]P[4-Cl-F]{COOH}) [SEQ ID NO: 491] | 0.453 nM |
| Ac-QR[NMehArg]LSHKGP[Nle]P[Phe(4-Cl)]-OH (SMILES CCCC[C@H](NC(=O)[C@@H]1CCCN1C(=O)CNC(=O)[C@H](CCCCN)NC(=O)[C@H](Cc1c[nH]cn1)NC(=O)[C@H](CO)NC(=O)[C@H](CC(C)C)NC(=O)[C@H](CCCCNC(=N)N)N(C)C(=O)[C@H](CCCNC(=N)N)NC(=O)[C@H](CCC(N)=O)NC(C)=O)C(=O)N1CCC[C@H]1C(=O)N[C@@H](Cc1ccc(Cl)cc1)C(=O)O) [SEQ ID NO: 73] | 47.2 nM |
| XXXQRPRLSHKGPXPF ({Myristyl-NH}[AC4Abu][Aeea][Aeea]QRP[NMeArg]LSHKGP[Nle]P[4-Cl-F]{COOH}) [SEQ ID NO: 592] | 0.598 nM |
| XXXQRPRLSHKGPXPF ({AdpA}[AC4Abu][Aeea][Aeea]QRP[NMeArg]LSHKGP[Nle]P[4-Cl-F]{COOH}) [SEQ ID NO: 461] | 1 nM |
| Palmitoyl-[AC4Abu″][AEEA][AEEA][dQ]RP[NMeR][αMeL]S[Dap]KG[Oic][Nle][β3hP][Phe(4-Cl)]-OH (reading uncertain) [SEQ ID NO: 630] | 0.486 nM |
| QRPRLSHKGPXPF ({Acetyl-NH}QrP[hArg][aMeLeu]SHKGP[Nle]P[4-Cl-F]{COOH}) [SEQ ID NO: 70] | 9.74 nM |
| QRPRLSHKGPXPF ({Acetyl-NH}Q[hArg]P[NMeArg][aMeLeu]SHKGP[Nle]P[4-Cl-F]{COOH}) [SEQ ID NO: 71] | 2.75 nM |
| XXXQRPRLSHKGPXPF ({AdpA}[AC4Abu][Aeea][Aeea]QrP[hArg][aMeLeu]SHKGP[Nle]P[4-Cl-F]{COOH}) [SEQ ID NO: 515] | 5.94 nM |
| QRPRLSHKGPXPF ({Acetyl-NH}QRP[NMeArg]LSHKGP[Nle]P[4-Cl-F]{COOH}) [SEQ ID NO: 68] | 0.384 nM |
| XXXQRPRLSHKGPXPF ({Palm}[AC4Abu][Aeea][Aeea]QRP[NMeArg]LSHKGP[Nle]P[4-Cl-F]{COOH}) [SEQ ID NO: 593] | 0.231 nM |
| XXXQRPRLSHKGPXPF ({hexanoyl}[AC4Abu][Aeea][Aeea]QrP[hArg][aMeLeu]SHKGP[Nle]P[4-Cl-F]{COOH}) [SEQ ID NO: 514] | 6.69 nM |
| Ac-[hArg][dR]Q[hArg]E[dR][NMeL]SHKG[Oic][Phe(4-I)]P[dBip]-OH [SEQ ID NO: 78] | 0.871 nM |
| XXXQRPRLSHKGPXPF ({ODDA}[AC4Abu][Aeea][Aeea]QRP[NMeArg]LSHKGP[Nle]P[4-Cl-F]{COOH}) [SEQ ID NO: 513] | 6.12 nM |
| KLRKHNCLQRRCMPLHSRVPFP [SEQ ID NO: 15] | 16.1 nM |
| {HOOC(CH2)8CO}-[γGlu][AEEA][AEEA][hArg][dR]Q[hArg]P[dR][NMeL]SHKG[Oic][Phe(4-I)]P[dBip]-OH (SMILES CC(C)C[C@@H](C(=O)N[C@@H](CO)C(=O)N[C@@H](Cc1c[nH]cn1)C(=O)N[C@@H](CCCCN)C(=O)NCC(=O)N1[C@H](C(=O)N[C@@H](Cc2ccc(I)cc2)C(=O)N2CCC[C@H]2C(=O)N[C@H](Cc2ccc(-c3ccccc3)cc2)C(=O)O)C[C@@H]2CCCC[C@@H]21)N(C)C(=O)[C@@H](CCCNC(=N)N)NC(=O)[C@@H]1CCCN1C(=O)[C@H](CCCCNC(=N)N)NC(=O)[C@H](CCC(N)=O)NC(=O)[C@@H](CCCNC(=N)N)NC(=O)[C@H](CCCCNC(=N)N)NC(=O)COCCOCCNC(=O)COCCOCCNC(=O)CC[C@H](NC(=O)CCCCCCCCC(=O)O)C(=O)O) [SEQ ID NO: 291] | 2.47 nM |
| XXXQRPRLSHKGPXPF ({hexanoyl}[AC4Abu][Aeea][Aeea]QRP[hArg][aMeLeu]SHKGP[Nle]P[4-Cl-F]{COOH}) [SEQ ID NO: 559] | 9.15 nM |
